B1: peptide F4ab 148–160 [modified: FITC-Ahx on the N-terminus; FITC-Ahx on the N-terminus] [Escherichia coli] / porcine aminopeptidase N (APN), His-tagged whole protein [porcine] (parent complex)
chain 1: NASYAGVFGKGGV
chain 2: MAKGFYISKALGILGILLGVAAVATIIALSVVYAQEKNKNAEHVPQAPTSPTITTTAAITLDQSKPWNRYRLPTTLLPDSYNVTLRPYLTPNADGLYIFKGKSIVRLLCQEPTDVIIIHSKKLNYTTQGHMVVLRGVGDSQVPEIDRTELVELTEYLVVHLKGSLQPGHMYEMESEFQGELADDLAGFYRSEYMEGNVKKVLATTQMQSTDARKSFPCFDEPAMKATFNITLIHPNNLTALSNMPPKGSSTPLAEDPNWSVTEFETTPVMSTYLLAYIVSEFQSVNETAQNGVLIRIWARPNAIAEGHGMYALNVTGPILNFFANHYNTSYPLPKSDQIALPDFNAGAMENWGLVTYRENALLFDPQSSSISNKERVVTVIAHELAHQWFGNLVTLAWWNDLWLNEGFASYVEYLGADHAEPTWNLKDLIVPGDVYRVMAVDALASSHPLTTPAEEVNTPAQISEMFDSISYSKGASVIRMLSNFLTEDLFKEGLASYLHAFAYQNTTYLDLWEHLQKAVDAQTSIRLPDTVRAIMDRWTLQMGFPVITVDTKTGNISQKHFLLDSESNVTRSSAFDYLWIVPISSIKNGVMQDHYWLRDVSQAQNDLFKTASDDWVLLNVNVTGYFQVNYDEDNWRMIQHQLQTNLSVIPVINRAQVIYDSFNLATAHMVPVTLALDNTLFLNGEKEYMPWQAALSSLSYFSLMFDRSEVYGPMKKYLRKQVEPLFQHFETLTKNWTERPENLMDQYSEINAISTACSNGLPQCENLAKTLFDQWMSDPENNPIHPNLRSTIYCNAIAQGGQDQWDFAWGQLQQAQLVNEADKLRSALACSNEVWLLNRYLGYTLNPDLIRKQDATSTINSIASNVIGQPLAWDFVQSNWKKLFQDYGGGSFSFSNLIQGVTRRFSSEFELQQLEQFKKNNMDVGFGSGTRALEQALEKTKANIKWVKENKEVVLNWFIEHS
B2: peptide F4ac 200–218 [modified: FITC-Ahx on the N-terminus; FITC-Ahx on the N-terminus] [Escherichia coli] / porcine aminopeptidase N (APN), His-tagged whole protein [porcine] (parent complex)
chain 1: TKLFGSLSRNDILGQIQRV
chain 2: B1 chain 2
B3: peptide F4ad 200–218 [modified: FITC-Ahx on the N-terminus; FITC-Ahx on the N-terminus] [Escherichia coli] / porcine aminopeptidase N (APN), His-tagged whole protein [porcine] (parent complex)
chain 1: ARTELFGSLSKNDILGQIQ
chain 2: B1 chain 2

Variants of: B1
Experiment: ELISA; parent: 30; read off a plot

Variant	response
chain 1 NASYAGVFGKGAV [chain 1 G12A]	~28 relative value APN/PBS at 450 nm

Variants of: B2
Experiment: ELISA; parent: 29; read off a plot

Variant	response
chain 1 TKAFGSLSRNDILGQIQRV [chain 1 L3A]	~73 relative value APN/PBS at 450 nm
chain 1 TKLFGSLSRNDIAGQIQRV [chain 1 L13A]	~13 relative value APN/PBS at 450 nm
chain 1 TALFGSLSRNDILGQIQRV [chain 1 K2A]	~48 relative value APN/PBS at 450 nm
chain 1 TKLFASLSRNDILGQIQRV [chain 1 G5A]	~20 relative value APN/PBS at 450 nm
chain 1 TKLFGSLSRNDILAQIQRV [chain 1 G14A]	~6.5 relative value APN/PBS at 450 nm
chain 1 TKLFGSLSRNDILGQIQAV [chain 1 R18A]	~6.5 relative value APN/PBS at 450 nm
chain 1 TKLFGSLSRADILGQIQRV [chain 1 N10A]	~15 relative value APN/PBS at 450 nm
chain 1 TKLFGSASRNDILGQIQRV [chain 1 L7A]	~6.5 relative value APN/PBS at 450 nm
chain 1 TKLFGSLARNDILGQIQRV [chain 1 S8A]	~27 relative value APN/PBS at 450 nm

Variants of: B3
Experiment: ELISA; parent: 55; read off a plot

Variant	response
chain 1 ERTELFGSLSKNDILGQIQ [chain 1 A1E]	~53 relative value APN/PBS at 450 nm
